According to IntAct's records for PubMed 25946333:

Columns and labels:
nemp1_mouse Nemp1 [1] = target: T1, nemp1_mouse Nemp1 (UniProt Q6ZQE4)
T1 sequence: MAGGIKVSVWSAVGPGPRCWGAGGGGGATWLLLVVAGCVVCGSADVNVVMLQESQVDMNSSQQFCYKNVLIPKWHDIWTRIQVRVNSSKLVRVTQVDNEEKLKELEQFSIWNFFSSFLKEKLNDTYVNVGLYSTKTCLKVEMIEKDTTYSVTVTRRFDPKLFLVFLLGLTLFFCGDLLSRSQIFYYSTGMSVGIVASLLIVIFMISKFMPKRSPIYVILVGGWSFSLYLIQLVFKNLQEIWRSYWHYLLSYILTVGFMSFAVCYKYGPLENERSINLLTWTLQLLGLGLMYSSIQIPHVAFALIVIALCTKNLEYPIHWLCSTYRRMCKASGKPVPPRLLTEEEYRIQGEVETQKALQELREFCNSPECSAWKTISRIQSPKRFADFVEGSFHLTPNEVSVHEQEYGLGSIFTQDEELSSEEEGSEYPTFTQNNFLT

nemp1_mouse Nemp1 [2] = target: T1, nemp1_mouse Nemp1; remark: listed apart in the source

effect of a mutation on the interaction (nemp1_mouse Nemp1 [1])	effect of a mutation on the interaction (nemp1_mouse Nemp1 [2])	Substance
with no effect		GTP-binding nuclear protein Ran (Mus musculus) (from UniProt P62827) Q69L
disrupting interaction strength	decreasing interaction strength	GTP-binding nuclear protein Ran (Mus musculus) (from UniProt P62827) T24N
disrupting interaction strength		GTP-binding nuclear protein Ran (Mus musculus) (from UniProt P62827) T42A
